Measurements: US20250154277A1 (CONCEPT TO MEDICINE BIOTECH, published 2025)
Read-outs that look alike come from different tables or passages of the source.

T1: human 5T4-His protein (human, UniProt Q13641 32-355)
T1 construct: also called recombinant 5T4 protein (human 5T4-his tag); human 5T4 protein; not shown: His tag
T1 sequence (looked up): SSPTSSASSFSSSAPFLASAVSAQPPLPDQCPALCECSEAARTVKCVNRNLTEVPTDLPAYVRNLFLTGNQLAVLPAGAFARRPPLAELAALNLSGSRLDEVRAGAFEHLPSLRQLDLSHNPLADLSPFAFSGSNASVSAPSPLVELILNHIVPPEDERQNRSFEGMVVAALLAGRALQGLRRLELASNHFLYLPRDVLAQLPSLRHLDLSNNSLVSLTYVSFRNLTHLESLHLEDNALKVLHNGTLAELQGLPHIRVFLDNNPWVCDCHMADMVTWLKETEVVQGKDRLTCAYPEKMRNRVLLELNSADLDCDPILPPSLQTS

B1: Hu14G12-1 (antibody, V domains shown)
VH: EVQLVQSGAEVKKPGATVKISCKVSGYAFSSSWMNWVQQAPGKGLEWMGRIYREDGHTNYNGKFKGRVTITADTSTDTAYMELSSLRSEDTAVYYCATGGAMDYWGQGTLVTVSS
VL: DIQMTQSPSSLSASVGDRVTITCRASQDISNYLNWYQQKPGKAPKLLIYYTSRLHSGVPSRFSGSGSGTDFTFTISSLQPEDIATYYCQQDNTLPWTFGGGTKLEIK
notes: humanized
B2: Hu14G12-9 (antibody, V domains shown)
VH: EVQLVQSGAEVKKPGATVKISCKVSGYAFSSSWMNWVKQAPGKGLEWIGRIYREDGHTNYNGKFKGRATITADTSTTTAYMELSSLRSEDTAVYFCANGGAMDYWGQGTLVTVSS
VL: DIQMTQSPSSLSASVGDRVTITCRASQDISNYLNWYQQKPGKAPKLLIYYTSRLHSGVPSRFSGSGSGTDFTFTISSLQPEDIATYYCQQDNTLPWTFGGGTKLEIK
notes: humanized
B3: Hu14G12-16 (antibody, V domains shown)
VH: EVQLVQSGAEVKKPGATVKISCKASGYAFSSSWMNWVKQAPGKGLEWIGRIYREDGHTNYNGKFKGRATITADTSTTTAYMELSSLRSEDSAVYFCANGGAMDYWGQGTLVTVSS
VL: DIQMTQSPSSLSASVGDRVTISCRASQDISNYLNWYQQKPGKTVKLLIYYTSRLHSGVPSRFSGSGSGTDYTFTISSLQPEDIATYFCQQDNTLPWTFGGGTKLEIK
notes: humanized
B4: Hu14G12-3 (antibody, V domains shown)
VH: EVQLVQSGAEVKKPGATVKISCKVSGYAFSSSWMNWVQQAPGKGLEWMGRIYREDGHTNYNGKFKGRVTITADTSTDTAYMELSSLRSEDTAVYYCATGGAMDYWGQGTLVTVSS
VL: DIQMTQSPSSLSASVGDRVTISCRASQDISNYLNWYQQKPGKAVKLLIYYTSRLHSGVPSRFSGSGSGTDFTFTISSLQPEDIATYFCQQDNTLPWTFGGGTKLEIK
notes: humanized
B5: Hu14G12-5 (antibody, V domains shown)
VH: EVQLVQSGAEVKKPGATVKISCKVSGYAFSSSWMNWVQQAPGKGLEWIGRIYREDGHTNYNGKFKGRVTITADTSTDTAYMELSSLRSEDTAVYFCANGGAMDYWGQGTLVTVSS
VL: DIQMTQSPSSLSASVGDRVTITCRASQDISNYLNWYQQKPGKAPKLLIYYTSRLHSGVPSRFSGSGSGTDFTFTISSLQPEDIATYYCQQDNTLPWTFGGGTKLEIK
notes: humanized
B6: Hu14G12-15 (antibody, V domains shown)
VH: EVQLVQSGAEVKKPGATVKISCKASGYAFSSSWMNWVKQAPGKGLEWIGRIYREDGHTNYNGKFKGRATITADTSTTTAYMELSSLRSEDSAVYFCANGGAMDYWGQGTLVTVSS
VL: DIQMTQSPSSLSASVGDRVTISCRASQDISNYLNWYQQKPGKAVKLLIYYTSRLHSGVPSRFSGSGSGTDFTFTISSLQPEDIATYFCQQDNTLPWTFGGGTKLEIK
notes: humanized
B7: Hu14G12-8 (antibody, V domains shown)
VH: EVQLVQSGAEVKKPGATVKISCKVSGYAFSSSWMNWVQQAPGKGLEWIGRIYREDGHTNYNGKFKGRVTITADTSTDTAYMELSSLRSEDTAVYFCANGGAMDYWGQGTLVTVSS
VL: DIQMTQSPSSLSASVGDRVTISCRASQDISNYLNWYQQKPGKTVKLLIYYTSRLHSGVPSRFSGSGSGTDYTFTISSLQPEDIATYFCQQDNTLPWTFGGGTKLEIK
notes: humanized
B8: Hu14G12-13 (antibody, V domains shown)
VH: EVQLVQSGAEVKKPGATVKISCKASGYAFSSSWMNWVKQAPGKGLEWIGRIYREDGHTNYNGKFKGRATITADTSTTTAYMELSSLRSEDSAVYFCANGGAMDYWGQGTLVTVSS
VL: DIQMTQSPSSLSASVGDRVTITCRASQDISNYLNWYQQKPGKAPKLLIYYTSRLHSGVPSRFSGSGSGTDFTFTISSLQPEDIATYYCQQDNTLPWTFGGGTKLEIK
notes: humanized
B9: Hu14G12-12 (antibody, V domains shown)
VH: EVQLVQSGAEVKKPGATVKISCKVSGYAFSSSWMNWVKQAPGKGLEWIGRIYREDGHTNYNGKFKGRATITADTSTTTAYMELSSLRSEDTAVYFCANGGAMDYWGQGTLVTVSS
VL: DIQMTQSPSSLSASVGDRVTISCRASQDISNYLNWYQQKPGKTVKLLIYYTSRLHSGVPSRFSGSGSGTDYTFTISSLQPEDIATYFCQQDNTLPWTFGGGTKLEIK
notes: humanized
B10: Hu14G12-7 (antibody, V domains shown)
VH: EVQLVQSGAEVKKPGATVKISCKVSGYAFSSSWMNWVQQAPGKGLEWIGRIYREDGHTNYNGKFKGRVTITADTSTDTAYMELSSLRSEDTAVYFCANGGAMDYWGQGTLVTVSS
VL: DIQMTQSPSSLSASVGDRVTISCRASQDISNYLNWYQQKPGKAVKLLIYYTSRLHSGVPSRFSGSGSGTDFTFTISSLQPEDIATYFCQQDNTLPWTFGGGTKLEIK
notes: humanized
B11: Hu14G12-18 (antibody, V domains shown)
VH: QVQLVQSGAEVKKPGSSVKVSCKASGGTFSSSWMNWVKQAPGQGLEWIGRIYREDGHTNYNGKFKGKATLTADKSTSTAYMELSSLRSEDTAVYFCANGGAMDYWGQGTTVTVSS
VL: DIQMTQSPSSLSASVGDRVTITCRASQDISNYLNWYQQKPGKVPKLLIYYTSRLHSGVPSRFSGSGSGTDYTLTISSLQPEDVATYFCQQDNTLPWTFGGGTKLEIK
notes: humanized
B12: Hu14G12-4 (antibody, V domains shown)
VH: EVQLVQSGAEVKKPGATVKISCKVSGYAFSSSWMNWVQQAPGKGLEWMGRIYREDGHTNYNGKFKGRVTITADTSTDTAYMELSSLRSEDTAVYYCATGGAMDYWGQGTLVTVSS
VL: DIQMTQSPSSLSASVGDRVTISCRASQDISNYLNWYQQKPGKTVKLLIYYTSRLHSGVPSRFSGSGSGTDYTFTISSLQPEDIATYFCQQDNTLPWTFGGGTKLEIK
notes: humanized
B13: Hu14G12-11 (antibody, V domains shown)
VH: EVQLVQSGAEVKKPGATVKISCKVSGYAFSSSWMNWVKQAPGKGLEWIGRIYREDGHTNYNGKFKGRATITADTSTTTAYMELSSLRSEDTAVYFCANGGAMDYWGQGTLVTVSS
VL: DIQMTQSPSSLSASVGDRVTISCRASQDISNYLNWYQQKPGKAVKLLIYYTSRLHSGVPSRFSGSGSGTDFTFTISSLQPEDIATYFCQQDNTLPWTFGGGTKLEIK
notes: humanized
B14: 393E9_hVH1_hVL1 (antibody, V domains shown)
VH: EVQLVESGGGLVQPGGSLRLSCAASGFTFTDYYMSWVRQAPGKGLEWVGFIRNKGNGYTTENSASVKGRFTISRDNSKSTLYLQMNSLRAEDTAVYYCARYRGNPHYAMDYWGQGTLVTVSS
VL: DIVLTQSPDSLAVSLGERATINCRASESVEFYGTSFLQWYQQKPGQPPKLLIYGASNVESGVPDRFSGSGSGTDFTLTISSLQAEDIAVYFCQQSRKVPSTFGGGTKVEIK
notes: humanized
B15: 393E9_hVH4_hVL1 (antibody, V domains shown)
VH: EVQLVESGGGLVQPGGSLRLSCAASGFTFTDYYMSWVRQAPGKGLEWVGFIRNKGNGYTTENSASVKGRFTISRDNSKSSLYLQMNSLKTEDTAVYYCARYRGNPHYAMDYWGQGTLVTVSS
VL: DIVLTQSPDSLAVSLGERATINCRASESVEFYGTSFLQWYQQKPGQPPKLLIYGASNVESGVPDRFSGSGSGTDFTLTISSLQAEDIAVYFCQQSRKVPSTFGGGTKVEIK
notes: humanized

Assays:
[1] = target: T1, human 5T4-His protein; test: ELISA, coated 5T4-His
Experimental: To evaluate the binding activity of 14G12 humanized antibodies to human 5T4, the 14G12 chimeric antibody along with 14G12 humanized mAbs were subjected to ELISA test.
Briefly, microtiter plates were coated with human 5T4-His protein at 1 μg/ml in PBS, 100 μl/well at 4° C. overnight, then blocked with […]. Serial dilutions of antibodies were added to each well and incubated for 1 hour at 37° C. The plates were washed with PBS/Tween and then incubated with Goat Anti-Human IgG-HRP for 30 mins at 37° C. After washing, the plates were developed with TMB substrate and analyzed by spectrophotometer at OD 450 nm. As shown in FIG. 10 and Table 6, most of the humanized antibodies bound to human 5T4 at high activity.

[2] = target: T1, human 5T4-His protein; test: SPR Biacore, Protein A capture
Experimental: The binding of the 14G12 humanized antibodies to recombinant 5T4 protein (human 5T4-his tag) was tested with Biacore using a capture method. The mAbs were captured using Protein A chip. Serial dilution of human 5T4-his tag protein was injected over captured antibody for 120 s-180 s at a flow rate of 30 μl/min. The antigen was allowed to dissociate for 360 s-1000 s. All the experiments were carried out on a Biacore T200. Data analysis was carried out using the Biacore T200 evaluation software.

[3] = target: T1, human 5T4-His protein; test: ELISA, coated 5T4-His; remark: listed apart in the source
Experimental: To evaluate the binding activity of 393E9 humanized antibodies to human 5T4, the 393E9 chimeric antibody (393E9-C) along with 393E9 humanized mAbs were subjected to ELISA test.
Briefly, microtiter plates were coated with human 5T4-His protein at 1 μg/ml in PBS, 100 μl/well at 4° C. overnight, then blocked with 150 μl/well of 1% BSA. 4-fold dilutions of antibodies starting from 20 nM were added to each well and incubated for 1 hour at 37° C. The plates were washed with PBS/Tween and then incubated with Goat Anti-Human IgG-HRP for 30 mins at 37° C. After washing, the plates were developed with TMB substrate and analyzed by spectrophotometer at OD 450 nm. As shown in FIG. 12 and Table 9, most of the humanized antibodies bound to human 5T4 with high activity.

Row | Binder | EC50 [1] [µg/mL] | Kd [2] [nM] | koff [2] [s⁻¹] | kon [2] [M⁻¹ s⁻¹] | EC50 [3] [nM]
1 | B1 | 0.021 | 42.7 | 0.0121 | 283000 | –
2 | B2 | 0.012 | 5.31 | 0.00107 | 202000 | –
3 | B3 | 0.017 | 1.85 | 0.000499 | 269000 | –
4 | B4 | 0.026 | 27.5 | 0.0055 | 200000 | –
5 | B5 | 0.014 | 5.88 | 0.00146 | 248000 | –
6 | B6 | 0.014 | 3.19 | 0.000837 | 262000 | –
7 | B7 | 0.015 | 1.36 | 0.000464 | 340000 | –
8 | B8 | 0.018 | 6.12 | 0.00121 | 198000 | –
9 | B9 | 0.019 | 2.39 | 0.000655 | 274000 | –
10 | B10 | 0.015 | 2.52 | 0.000846 | 336000 | –
11 | B11 | 0.31 | 4.55 | 0.00178 | 392000 | –
12 | B12 | 0.019 | 12.5 | 0.00267 | 214000 | –
13 | B13 | 0.015 | 2.17 | 0.000523 | 241000 | –
14 | B14 | – | – | – | – | 0.18
15 | B15 | – | – | – | – | 0.13
